Earlier results, collected in paper PMC2663039.
Where “and” joins values, the source holds several entries; their conditions need not be identical. Equal entries are not always repeated. Each block holds one substance with its values, some of them ahead of it.

Tests used:
NRP1 (Homo sapiens) [1] = biological target: NRP1 (Homo sapiens) (UniProt O14786); assay: SPR
NRP1 (Homo sapiens) [2] = biological target: NRP1 (Homo sapiens) (UniProt O14786); assay: SPR (BIAcore)
NRP1 (Homo sapiens) [3] = biological target: NRP1 (Homo sapiens) (UniProt O14786); assay: cell-based Scatchard
[4] = biological target: sFlt-1 (baculovirus-expressed) soluble form (Homo sapiens) (UniProt P17948)
[5] = biological target: sVEGFR1 (sFlt-1, baculovirus-expressed) soluble isoform (Homo sapiens) (UniProt P17948)
[6] = biological target: sVEGFR1 (sFlt-1, HUVEC-derived) soluble isoform (Homo sapiens) (UniProt P17948)
VEGFR1 (Homo sapiens) = VEGFR1 (Homo sapiens) (UniProt P17948)
VEGFR2 (Homo sapiens) = VEGFR2 (Homo sapiens) (UniProt P35968)
[7] = biological target: sFlt-1 (HUVEC-derived) soluble form (Homo sapiens) (UniProt P17948)

UniProt P35968, sequence (P35968 20-1356): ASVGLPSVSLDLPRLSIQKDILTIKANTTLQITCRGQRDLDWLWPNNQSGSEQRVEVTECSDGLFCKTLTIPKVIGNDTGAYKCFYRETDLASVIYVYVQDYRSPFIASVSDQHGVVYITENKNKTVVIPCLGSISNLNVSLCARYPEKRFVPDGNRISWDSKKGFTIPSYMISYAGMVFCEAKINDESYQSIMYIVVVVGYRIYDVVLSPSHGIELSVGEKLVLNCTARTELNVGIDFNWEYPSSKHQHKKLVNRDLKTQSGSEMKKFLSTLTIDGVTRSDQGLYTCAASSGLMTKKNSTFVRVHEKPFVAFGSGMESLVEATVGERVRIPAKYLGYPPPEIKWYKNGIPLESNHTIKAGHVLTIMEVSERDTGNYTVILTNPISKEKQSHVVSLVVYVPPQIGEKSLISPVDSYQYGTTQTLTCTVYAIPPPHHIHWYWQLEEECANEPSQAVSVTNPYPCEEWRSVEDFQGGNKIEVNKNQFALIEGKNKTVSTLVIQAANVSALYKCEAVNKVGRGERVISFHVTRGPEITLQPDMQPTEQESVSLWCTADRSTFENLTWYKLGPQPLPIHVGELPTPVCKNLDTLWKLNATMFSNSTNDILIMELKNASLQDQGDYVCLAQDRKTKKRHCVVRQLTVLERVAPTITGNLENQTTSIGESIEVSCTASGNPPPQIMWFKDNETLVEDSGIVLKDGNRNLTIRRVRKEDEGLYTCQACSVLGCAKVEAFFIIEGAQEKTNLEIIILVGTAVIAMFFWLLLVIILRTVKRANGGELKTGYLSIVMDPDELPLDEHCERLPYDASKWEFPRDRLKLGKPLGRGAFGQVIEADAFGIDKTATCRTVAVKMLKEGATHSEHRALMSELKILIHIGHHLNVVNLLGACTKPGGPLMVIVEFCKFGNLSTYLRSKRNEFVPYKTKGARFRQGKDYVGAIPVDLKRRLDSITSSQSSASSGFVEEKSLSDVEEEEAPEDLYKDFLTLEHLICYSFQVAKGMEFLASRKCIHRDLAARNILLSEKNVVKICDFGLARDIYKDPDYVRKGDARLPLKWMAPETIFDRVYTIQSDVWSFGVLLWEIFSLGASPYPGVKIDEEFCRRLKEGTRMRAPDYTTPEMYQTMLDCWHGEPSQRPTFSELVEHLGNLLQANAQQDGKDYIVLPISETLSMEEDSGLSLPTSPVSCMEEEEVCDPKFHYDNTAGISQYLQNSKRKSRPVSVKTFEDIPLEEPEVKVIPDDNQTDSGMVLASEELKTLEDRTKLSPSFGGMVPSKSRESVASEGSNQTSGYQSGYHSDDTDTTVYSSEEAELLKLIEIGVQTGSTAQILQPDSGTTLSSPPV

Substance: VEGF165 VEGF165 isoform (from UniProt P15692)
Kd (NRP1 (Homo sapiens) [2]): 25 nM
Kd (NRP1 (Homo sapiens) [3]): 0.2 nM and 0.32 nM

Substance: VEGF (from UniProt P15692)
Kd [4]: 0.02 nM
Kd [5]: 0.02 nM
Kd [6]: 0.01 nM
Kd (VEGFR1 (Homo sapiens)): 0.0333 nM
Kd (VEGFR2 (Homo sapiens)): 0.1 nM
Kd [7]: 0.01 nM

Results, then the substance that gave them:

Kd (NRP1 (Homo sapiens) [1]): 220 nM
Substance: VEGF121 VEGF121 (from UniProt P15692)

Kd (NRP1 (Homo sapiens) [1]): 120 nM
Substance: VEGF165 VEGF165 (from UniProt P15692)

Kd (NRP1 (Homo sapiens) [1]): 1.8 nM
Substance: Flt-1 ECD (from UniProt P17948)
